Experimental data reported in paper PMC2756588.

T1: Abp1, P15891
T1 sequence (P15891 535-592, looked up): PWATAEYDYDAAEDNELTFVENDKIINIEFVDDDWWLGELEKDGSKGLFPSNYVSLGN

T2: Bbc1, P47068
T2 sequence (P47068 1-78, looked up): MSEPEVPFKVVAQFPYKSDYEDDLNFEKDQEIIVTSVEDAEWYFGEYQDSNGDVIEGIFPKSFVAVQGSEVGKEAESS

T3: Boi1, P38041
T3 sequence (P38041 1-86, looked up): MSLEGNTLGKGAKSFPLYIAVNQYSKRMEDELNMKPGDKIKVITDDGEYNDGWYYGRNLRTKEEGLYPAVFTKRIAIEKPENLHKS

T4: Boi2, P39969
T4 sequence (P39969 32-116, looked up): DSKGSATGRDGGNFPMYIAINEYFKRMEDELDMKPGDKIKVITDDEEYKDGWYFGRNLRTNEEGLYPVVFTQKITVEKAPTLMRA

T5: Bud14, P27637
T5 sequence (P27637 247-328, looked up): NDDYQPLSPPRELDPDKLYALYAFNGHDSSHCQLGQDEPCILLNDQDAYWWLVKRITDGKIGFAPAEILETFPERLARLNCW

T6: Bzz1-1, P38822
T6 sequence (P38822 478-572, looked up): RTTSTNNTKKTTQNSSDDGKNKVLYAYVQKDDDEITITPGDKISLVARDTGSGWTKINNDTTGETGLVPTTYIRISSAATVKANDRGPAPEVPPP

T7: Bzz1-2, P38822
T7 sequence (P38822 568-633, looked up): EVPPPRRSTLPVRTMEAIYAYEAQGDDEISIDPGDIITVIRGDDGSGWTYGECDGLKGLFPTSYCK

T8: Cdc25, P04821
T8 sequence (P04821 50-136, looked up): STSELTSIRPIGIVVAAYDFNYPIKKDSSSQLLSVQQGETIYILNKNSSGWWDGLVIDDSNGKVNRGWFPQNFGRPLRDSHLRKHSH

T9: Cyk3, Q07533
T9 sequence (Q07533 1-83, looked up): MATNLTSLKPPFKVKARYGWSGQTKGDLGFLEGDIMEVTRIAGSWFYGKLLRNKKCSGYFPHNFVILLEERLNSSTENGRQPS

T10: Fus1, P11710
T10 sequence (P11710 432-512, looked up): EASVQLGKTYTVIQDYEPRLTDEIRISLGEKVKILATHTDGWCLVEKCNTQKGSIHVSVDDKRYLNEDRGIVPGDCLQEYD

T11: Hof1, Q05080
T11 sequence (Q05080 590-669, looked up): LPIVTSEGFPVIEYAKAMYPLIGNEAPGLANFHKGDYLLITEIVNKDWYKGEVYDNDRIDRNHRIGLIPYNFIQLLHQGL

T12: Hse1, P38753
T12 sequence (P38753 208-285, looked up): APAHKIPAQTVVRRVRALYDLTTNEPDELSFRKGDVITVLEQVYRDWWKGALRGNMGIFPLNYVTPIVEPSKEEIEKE

T13: Lsb1, P53281
T13 sequence (P53281 45-122, looked up): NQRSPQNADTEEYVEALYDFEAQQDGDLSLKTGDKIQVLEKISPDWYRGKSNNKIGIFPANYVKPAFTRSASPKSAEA

T14: Lsb3, P43603
T14 sequence (P43603 385-451, looked up): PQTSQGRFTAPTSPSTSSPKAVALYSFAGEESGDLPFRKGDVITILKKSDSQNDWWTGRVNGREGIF

T15: Lsb4, P32793
T15 sequence (P32793 402-468, looked up): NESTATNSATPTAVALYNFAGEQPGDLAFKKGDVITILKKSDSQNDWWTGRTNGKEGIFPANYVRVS

T16: Myo5, Q04439
T16 sequence (Q04439 1072-1160, looked up): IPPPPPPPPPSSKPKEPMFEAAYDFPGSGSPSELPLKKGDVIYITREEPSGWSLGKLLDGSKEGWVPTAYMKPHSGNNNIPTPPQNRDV

T17: Nbp2, Q12163
T17 sequence (Q12163 103-180, looked up): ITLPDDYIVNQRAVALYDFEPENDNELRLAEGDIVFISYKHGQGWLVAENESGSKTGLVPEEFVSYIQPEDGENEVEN

T18: Pex13, P80667
T18 sequence (P80667 295-386, looked up): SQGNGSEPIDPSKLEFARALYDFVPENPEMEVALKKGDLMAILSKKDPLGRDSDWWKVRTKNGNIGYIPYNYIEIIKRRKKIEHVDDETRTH

T19: Pin3, Q06449
T19 sequence (Q06449 53-122, looked up): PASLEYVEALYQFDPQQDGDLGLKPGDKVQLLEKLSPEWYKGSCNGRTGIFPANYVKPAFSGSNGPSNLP

T20: Sla1-2, P32790
T20 sequence (P32790 60-140, looked up): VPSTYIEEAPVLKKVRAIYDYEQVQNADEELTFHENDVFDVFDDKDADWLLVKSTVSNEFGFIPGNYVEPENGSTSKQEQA

T21: Sla1-3, P32790
T21 sequence (P32790 344-424, looked up): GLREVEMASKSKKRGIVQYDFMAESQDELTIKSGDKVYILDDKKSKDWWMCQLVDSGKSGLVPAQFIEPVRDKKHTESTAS

B1: unnamed (peptide)
chain: QLMKNLPKIPLLNDI
B2: unnamed (peptide)
chain: KNRKNLPTIPIRLSG

These binders were tested against T1, Abp1, P15891 (assay: SPOT array). Conditions: median of control spots 935.
B1 was tested, and the SPOT intensity was 76. Work on B2 yielded an SPOT intensity of 333.

Each binder was assayed against T2, Bbc1, P47068 (assay: SPOT array). Conditions: median of control spots 796.
B1 gave an SPOT intensity of 0. Binder B2 has an SPOT intensity of 25.

The binders below were run against Bem1-1, P29366 (assay: SPOT array). Conditions: median of control spots 4282.
Chain of Bem1-1, P29366 (P29366 55-141): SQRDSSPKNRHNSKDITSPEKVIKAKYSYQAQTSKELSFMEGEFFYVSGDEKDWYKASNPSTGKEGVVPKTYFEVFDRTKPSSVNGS
B1 was tested, and the SPOT intensity was 5. Binder B2 has an SPOT intensity of 4.

These binders were tested against Bem1-2, P29366 (assay: SPOT array). Conditions: median of control spots 4347.
Chain of Bem1-2, P29366 (P29366 139-227): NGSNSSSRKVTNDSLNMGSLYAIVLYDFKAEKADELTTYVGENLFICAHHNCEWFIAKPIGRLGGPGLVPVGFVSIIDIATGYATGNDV
B1 showed an SPOT intensity of 0. B2 was tested, and the SPOT intensity was 16.

What follows are binders tested against T3, Boi1, P38041 (assay: SPOT array). Conditions: median of control spots 1162.
With B1 the SPOT intensity was 1. In the case of B2, the SPOT intensity is reported as 3.

What follows are binders tested against T4, Boi2, P39969 (assay: SPOT array). Conditions: median of control spots 1161.
Work on B1 yielded an SPOT intensity of 1. B2 showed an SPOT intensity of 2.

What follows are binders tested against T5, Bud14, P27637 (assay: SPOT array). Conditions: median of control spots 956.
B1 was tested, and the SPOT intensity was 0. B2 was tested, and the SPOT intensity was 3.

The binders below were run against T6, Bzz1-1, P38822 (assay: SPOT array). Conditions: median of control spots 4446.
In the case of B1, the SPOT intensity is reported as 1. Work on B2 yielded an SPOT intensity of 0.

What follows are binders tested against T7, Bzz1-2, P38822 (assay: SPOT array). Conditions: median of control spots 4538.
In the case of B1, the SPOT intensity is reported as 7. With B2 the SPOT intensity was 4.

The binders below were run against T8, Cdc25, P04821 (assay: SPOT array). Conditions: median of control spots 969.
With B1 the SPOT intensity was 0. B2 showed an SPOT intensity of 5.

What follows are binders tested against T9, Cyk3, Q07533 (assay: SPOT array). Conditions: median of control spots 1451.
In the case of B1, the SPOT intensity is reported as 0. Work on B2 yielded an SPOT intensity of 1.

Each binder was assayed against T10, Fus1, P11710 (assay: SPOT array). Conditions: median of control spots 1200.
In the case of B1, the SPOT intensity is reported as 0. In the case of B2, the SPOT intensity is reported as 24.

What follows are binders tested against GST (assay: SPOT array). Conditions: median of control spots 978.
B1 showed an SPOT intensity of 1. B2 showed an SPOT intensity of 0.

Each binder was assayed against T11, Hof1, Q05080 (assay: SPOT array). Conditions: median of control spots 4086.
B1 showed an SPOT intensity of 11. In the case of B2, the SPOT intensity is reported as 26.

Each binder was assayed against T12, Hse1, P38753 (assay: SPOT array). Conditions: median of control spots 1727.
Work on B1 yielded an SPOT intensity of 1. For B2, the SPOT intensity was 2.

Each binder was assayed against T13, Lsb1, P53281 (assay: SPOT array). Conditions: median of control spots 388.
With B1 the SPOT intensity was 6. Binder B2 has an SPOT intensity of 1220.

Each binder was assayed against T14, Lsb3, P43603 (assay: SPOT array). Conditions: median of control spots 406.
B1 showed an SPOT intensity of 21. With B2 the SPOT intensity was 25.

These binders were tested against T15, Lsb4, P32793 (assay: SPOT array). Conditions: median of control spots 397.
In the case of B1, the SPOT intensity is reported as 41. For B2, the SPOT intensity was 103.

Each binder was assayed against Myo3, P36006 (assay: SPOT array). Conditions: median of control spots 468.
For B1, the SPOT intensity was 72. B2 showed an SPOT intensity of 5.

The binders below were run against T16, Myo5, Q04439 (assay: SPOT array). Conditions: median of control spots 471.
B1 was tested, and the SPOT intensity was 68. With B2 the SPOT intensity was 1.

What follows are binders tested against T17, Nbp2, Q12163 (assay: SPOT array). Conditions: median of control spots 357.
B1 gave an SPOT intensity of 10. With B2 the SPOT intensity was 47.

These binders were tested against T18, Pex13, P80667 (assay: SPOT array). Conditions: median of control spots 1341.
Work on B1 yielded an SPOT intensity of 162. B2 showed an SPOT intensity of 13.

These binders were tested against T19, Pin3, Q06449 (assay: SPOT array). Conditions: median of control spots 2171.
B1 gave an SPOT intensity of 78. With B2 the SPOT intensity was 15.

Each binder was assayed against Rvs167, P39743 (assay: SPOT array). Conditions: median of control spots 2707.
Chain of Rvs167, P39743 (P39743 419-482): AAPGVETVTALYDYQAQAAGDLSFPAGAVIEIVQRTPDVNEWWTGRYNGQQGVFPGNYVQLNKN
In the case of B1, the SPOT intensity is reported as 0. B2 gave an SPOT intensity of 86.

The binders below were run against Sho1, P40073 (assay: SPOT array). Conditions: median of control spots 1148.
Chain of Sho1, P40073 (P40073 287-367): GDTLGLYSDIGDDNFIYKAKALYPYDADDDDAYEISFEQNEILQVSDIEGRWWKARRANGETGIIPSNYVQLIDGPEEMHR
In the case of B1, the SPOT intensity is reported as 861. Work on B2 yielded an SPOT intensity of 1660.

What follows are binders tested against T20, Sla1-2, P32790 (assay: SPOT array). Conditions: median of control spots 712.
In the case of B1, the SPOT intensity is reported as 5. With B2 the SPOT intensity was 0.

Each binder was assayed against T21, Sla1-3, P32790 (assay: SPOT array). Conditions: median of control spots 5475.
B1 was tested, and the SPOT intensity was 2. B2 was tested, and the SPOT intensity was 55.
